The assay addresses E. coli 30S initiation complex (30S IC) lacking IF2 and IF3 (E. coli) (UniProt P69222). As to the kind of experiment: FRET or BRET. For orientation: BRET reads energy transfer from a luciferase to a nearby fluorophore.
UniProt P69222, sequence (P69222 whole entry, looked up, one chain of several): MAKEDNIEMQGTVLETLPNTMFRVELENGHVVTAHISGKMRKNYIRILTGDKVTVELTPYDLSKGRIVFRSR

For the substance “Cy5-labeled Initiation Factor 2 (IF2), E. coli (from UniProt P0A705 1-890) (natural protein)”, the fold change of Kd, IF2 bound to ppGpp relative to IF2 bound to GTP is 10 fold.

For the origin of these results see paper doi:10.1101/807917.
